The subject of data set [1] is T1, Lys(Dnp)-ATNATX4X3PRIVGG-Lys(Abz), X4 = E, X3 = K.
T1 sequence: KATNATEKPRIVGGK

Data set [2] relates to T2, Lys(Dnp)-ATNATX4X3PRIVGG-Lys(Abz), X4 = K, X3 = F.
T2 sequence: KATNATKFPRIVGGK

Data set [3] has as its system T3, Lys(Dnp)-ATNATX4X3PRIVGG-Lys(Abz), X4 = N, X3 = V.
T3 sequence: KATNATNVPRIVGGK

In data set [4] the test system is T4, Lys(Dnp)-ATNATX4X3PRIVGG-Lys(Abz), X4 = G, X3 = H.
T4 sequence: KATNATGHPRIVGGK

For data set [5], the system named is T5, Lys(Dnp)-ATNATX4X3PRIVGG-Lys(Abz), X4 = T, X3 = G.
T5 sequence: KATNATTGPRIVGGK

Data set [6] concerns T6, Lys(Dnp)-ATNATX4X3PRIVGG-Lys(Abz), X4 = Q, X3 = L.
T6 sequence: KATNATQLPRIVGGK

For data set [7], the system named is T7, Lys(Dnp)-ATNATX4X3PRIVGG-Lys(Abz), X4 = Y, X3 = I.
T7 sequence: KATNATYIPRIVGGK

As to Human plasma purified Factor Xa, the FXa kcat/KM in data set [1] was determined as 7.9 M⁻¹ s⁻¹; in data set [2], 35 M⁻¹ s⁻¹; in data set [3], 17 M⁻¹ s⁻¹; in data set [4] it was 58 M⁻¹ s⁻¹; in data set [5] it was 21 M⁻¹ s⁻¹; in data set [6], 480 M⁻¹ s⁻¹. For the same substance, the FXa kcat/KM in data set [7] amounted to 66 M⁻¹ s⁻¹.

These data come from US20160024487.
